Measured values reported in article PMC9352680, “A comprehensive thermodynamic model for RNA binding by the Saccharomyces cerevisiae Pumilio protein PUF4”.
Residue numbers refer to the chain shown, from its start. Names may count otherwise.

Molecular target: T1, PUF4 RNA-binding domain (Saccharomyces cerevisiae, UniProt P25339 537-888)
T1 sequence: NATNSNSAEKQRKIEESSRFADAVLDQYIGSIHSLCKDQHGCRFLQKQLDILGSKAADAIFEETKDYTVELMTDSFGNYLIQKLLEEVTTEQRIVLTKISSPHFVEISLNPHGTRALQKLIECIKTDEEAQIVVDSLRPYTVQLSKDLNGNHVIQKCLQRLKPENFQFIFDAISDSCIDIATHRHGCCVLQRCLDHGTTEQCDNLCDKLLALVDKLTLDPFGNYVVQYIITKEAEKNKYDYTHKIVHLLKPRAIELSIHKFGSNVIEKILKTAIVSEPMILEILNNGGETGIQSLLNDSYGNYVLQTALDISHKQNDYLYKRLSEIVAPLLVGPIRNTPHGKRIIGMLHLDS
Assay: Mg; RNA-MaP; 20 mM Na-HEPES pH 7.4, 30 mM KOAc, 0.75 mM MgCl2, 0.1% Tween-20, 5% glycerol, 0.1 mg/mL BSA, 2 mM DTT; 25 C; 0.0125-409.6 nM protein
Conditions: tags: N-His6-TEV cleaved; C-SNAP kept, Cy3B-labelled; label: tethered on chip by stalled RNA polymerase

B1: Ib_S2_P4E.1_K4.1_C4.1_H4.1_[G2C]_A4.1_[A6G]_F4.1_T4.1 (ssRNA)
RNA: UUUGAUUAAUAUGAUAUCGUUCUUUCUUCUAUGUUAUUCUUUCUCGAUAUCAUAUUAAUCUUU
- Kd: 1150 nM

B2: Ib_S2_P4E.1_K4.1_C4.1_H4.1_[G2T]_A4.1_[A6G]_F4.1_T4.1 (ssRNA)
RNA: B1 RNA with C29U
- Kd: > 2300 nM

B3: Ib_S2_P4E.1_K4.1_C4.1_H4.1_[G2T]_A4.1_[A6C]_F4.1_T4.1 (ssRNA)
RNA: B1 RNA with C29U, G33C
- Kd: > 2300 nM

B4: Ib_S2_P4E.1_K4.1_C4.1_H4.1_[G2T]_A4.1_[A6T]_F4.1_T4.1 (ssRNA)
RNA: B1 RNA with C29U, G33U
- Kd: 1390 nM

B5: Ib_S2_P4E.1_K4.1_C4.1_H4.1_[G2A]_A4.1_[A6C]_F4.1_T4.1 (ssRNA)
RNA: B1 RNA with C29A, G33C
- Kd: 154 nM

B6: Ib_S2_P4E.1_K4.1_C4.1_H4.1_[G2C]_A4.1_[T7C]_F4.1_T4.1 (ssRNA)
RNA: B1 RNA with G33A, U34C
- Kd: 190 nM

B7: Ib_S2_P4E.1_K4.1_C4.1_H4.1_[G2A]_A4.1_[T7G]_F4.1_T4.1 (ssRNA)
RNA: B1 RNA with C29A, G33A, U34G
- Kd: 80.2 nM

B8: Ib_S2_P4E.1_K4.1_C4.1_H4.1_[T3C]_A4.1_[T5C]_F4.1_T4.1 (ssRNA)
RNA: B1 RNA with C29G, U30C, U32C, G33A
- Kd: 14.6 nM

B9: Ib_S2_P4E.1_K4.1_C4.1_H4.1_[T3C]_A4.1_[A6G]_F4.1_T4.1 (ssRNA)
RNA: B1 RNA with C29G, U30C
- Kd: 777 nM

B10: Ib_S2_P4E.1_K4.1_C4.1_H4.1_[T3C]_A4.1_[A6C]_F4.1_T4.1 (ssRNA)
RNA: B1 RNA with C29G, U30C, G33C
- Kd: 1010 nM

Binder: UCUCUUAGUAUAUAUCUCUU (ssRNA) [Ia_S1_P3E.1_K3.1_C3.1_H3.1_[T1A]_A3.1_F3.1_T3.1]
- Kd: 742 nM

B11: Ia_S2_P4E.1_K4.1_C4.1_H4.1_[A4T]_A4.1_F4.1_T4.1 (ssRNA)
RNA: B1 RNA with C29G, A31U, G33A
- Kd: 4.39 nM

B12: Ib_S2_P4E.1_K4.1_C4.1_H4.1_[T3C]_A4.1_[T7G]_F4.1_T4.1 (ssRNA)
RNA: B1 RNA with C29G, U30C, G33A, U34G
- Kd: 616 nM

B13: Ib_S2_P4E.1_K4.1_C4.1_H4.1_[A4G]_A4.1_[A6C]_F4.1_T4.1 (ssRNA)
RNA: B1 RNA with C29G, A31G, G33C
- Kd: 8.2 nM

B14: Ib_S2_P4E.1_K4.1_C4.1_H4.1_[A4G]_A4.1_[A6T]_F4.1_T4.1 (ssRNA)
RNA: B1 RNA with C29G, A31G, G33U
- Kd: 4.38 nM

B15: Ib_S2_P4E.1_K4.1_C4.1_H4.1_[A4C]_A4.1_[A6T]_F4.1_T4.1 (ssRNA)
RNA: B1 RNA with C29G, A31C, G33U
- Kd: 28.6 nM

B16: Ib_S2_P4E.1_K4.1_C4.1_H4.1_[A4T]_A4.1_[A6G]_F4.1_T4.1 (ssRNA)
RNA: B1 RNA with C29G, A31U
- Kd: 55.4 nM

B17: Ib_S2_P4E.1_K4.1_C4.1_H4.1_[A4T]_A4.1_[A6C]_F4.1_T4.1 (ssRNA)
RNA: B1 RNA with C29G, A31U, G33C
- Kd: 23.1 nM

B18: Ib_S2_P4E.1_K4.1_C4.1_H4.1_[A4G]_A4.1_[T7G]_F4.1_T4.1 (ssRNA)
RNA: B1 RNA with C29G, A31G, G33A, U34G
- Kd: 5.12 nM

B19: Ib_S2_P4E.1_K4.1_C4.1_H4.1_[A4G]_A4.1_[T7C]_F4.1_T4.1 (ssRNA)
RNA: B1 RNA with C29G, A31G, G33A, U34C
- Kd: 1.04 nM

B20: Ib_S2_P4E.1_K4.1_C4.1_H4.1_[A4G]_A4.1_[T7A]_F4.1_T4.1 (ssRNA)
RNA: B1 RNA with C29G, A31G, G33A, U34A
- Kd: 5.79 nM

B21: Ib_S2_P4E.1_K4.1_C4.1_H4.1_[A4C]_A4.1_[T7G]_F4.1_T4.1 (ssRNA)
RNA: B1 RNA with C29G, A31C, G33A, U34G
- Kd: 50.2 nM

B22: Ic_S2_P4E.1_K4.1_C4.1_H4.1_A4.1_[T5A]_F4.1_T4.1 (ssRNA)
RNA: B1 RNA with C29G, U32A, G33A
- Kd: 0.874 nM

B23: Ib_S2_P4E.1_K4.1_C4.1_H4.1_[A4C]_A4.1_[T7C]_F4.1_T4.1 (ssRNA)
RNA: B1 RNA with C29G, A31C, G33A, U34C
- Kd: 6.04 nM

B24: Ib_S2_P4E.1_K4.1_C4.1_H4.1_[A4C]_A4.1_[T7A]_F4.1_T4.1 (ssRNA)
RNA: B1 RNA with C29G, A31C, G33A, U34A
- Kd: 16 nM

B25: Ib_S2_P4E.1_K4.1_C4.1_H4.1_[A4T]_A4.1_[T7G]_F4.1_T4.1 (ssRNA)
RNA: B1 RNA with C29G, A31U, G33A, U34G
- Kd: 30.8 nM

B26: Ib_S2_P4E.1_K4.1_C4.1_H4.1_[A4T]_A4.1_[T7C]_F4.1_T4.1 (ssRNA)
RNA: B1 RNA with C29G, A31U, G33A, U34C
- Kd: 6.89 nM

B27: Ib_S2_P4E.1_K4.1_C4.1_H4.1_A4.1_[T5G]_[A6T]_F4.1_T4.1 (ssRNA)
RNA: B1 RNA with C29G, U32G, G33U
- Kd: 2.75 nM

B28: Ib_S2_P4E.1_K4.1_C4.1_H4.1_A4.1_[T5C]_[A6C]_F4.1_T4.1 (ssRNA)
RNA: B1 RNA with C29G, U32C, G33C
- Kd: 0.902 nM

B29: Ib_S2_P4E.1_K4.1_C4.1_H4.1_A4.1_[T5C]_[A6T]_F4.1_T4.1 (ssRNA)
RNA: B1 RNA with C29G, U32C, G33U
- Kd: 0.795 nM
